Columns and labels:
Test in all cases: cell-based or functional assay
[1] = biological target: HIV-1 MGRM-A-006 envelope glycoprotein (Env) (HIV-1)
[2] = biological target: HIV-1 Env of pseudovirus JRCSF, clade B (HIV-1) (UniProt P20871)
[3] = biological target: HIV-1 92RW020 envelope protein (Env) on pseudovirus (HIV-1)
[4] = biological target: HIV-1 Env of isolate MGRM-D-021 (clade D) (HIV-1)
[5] = biological target: HIV-1 93IN905 envelope protein (Env) on pseudovirus (HIV-1)
[6] = biological target: HIV-1 VLGCA1 envelope glycoprotein (Env) on pseudovirus (HIV-1)
[7] = biological target: HIV-1 Env of isolate MGRM-D-002 (clade D) (HIV-1)
[8] = biological target: HIV-1 Env of pseudovirus MGRM-Chronic-B-001, clade B (HIV-1)
[9] = biological target: HIV-1 MGRM-C-004 Env (HIV-1)
[10] = biological target: HIV-1 Env of isolate MGRM-D-005 (clade D) (HIV-1)
[11] = biological target: HIV-1 Env of isolate MGRM-G-016 (clade G pseudovirus) (HIV-1)
[12] = biological target: HIV-1 Env of isolate SF162 (HIV-1) (UniProt P19549)
[13] = biological target: HIV-1 MGRM-C-023 Env (HIV-1)
[14] = biological target: HIV-1 Env of pseudovirus CAAN.A2 (Acute), clade B (HIV-1)
[15] = biological target: HIV-1 MGRM-A-007 envelope glycoprotein (Env) (HIV-1)
[16] = biological target: HIV-1 MGRM-F1-010 Env (pseudovirus) (HIV-1)
[17] = biological target: HIV-1 Env of isolate MGRM-F1-020 (subtype F), on pseudovirus (HIV-1)
[18] = biological target: HIV-1 Env of isolate MGRM-C-024 (HIV-1)
[19] = biological target: HIV-1 Env of isolate MGRM-A-010 (clade A), on pseudovirus (HIV-1)
[20] = biological target: HIV-1 Env of isolate NL43 (HIV-1)
[21] = biological target: HIV-1 Env of isolate MGRM-D-012 (HIV-1)
[22] = biological target: HIV-1 Env of isolate MGRM-C-027 (HIV-1)
[23] = biological target: HIV-1 Env of isolate MGRM-D-004 (HIV-1)
[24] = biological target: HIV-1 JR-CSF Env L125A (HIV-1 (isolate JR-CSF)) (UniProt P20871)
[25] = biological target: HIV-1 Env of isolate 92BR020 (pseudovirus) (HIV-1 isolate 92BR020, subtype B)
[26] = biological target: HIV-1 JR-CSF Env F468A (HIV-1 (isolate JR-CSF)) (UniProt P20871)
[27] = biological target: HIV-1 Env of isolate MGRM-G-025 (HIV-1)
[28] = biological target: HIV-1 Env of isolate MGRM-Chronic-B-004 (HIV-1)
[29] = biological target: HIV-1 JR-CSF Env E466A (HIV-1 (isolate JR-CSF)) (UniProt P20871)
[30] = biological target: HIV-1 Env of isolate TRO.11 (HIV-1)
[31] = biological target: HIV-1 Env of isolate MGRM-Chronic-B-003 (HIV-1)
[32] = biological target: HIV-1 Env of isolate SF162 (HIV-1) (UniProt P19550)
[33] = biological target: HIV-1 Env of isolate 92WR021 (HIV-1)
[34] = biological target: HIV-1 Env of isolate MGRM-C-008 (HIV-1)
[35] = biological target: HIV-1 JRCSF envelope glycoprotein (Env) on pseudovirus (HIV-1) (UniProt P20871)

Sequence of 1443_C16 (PG16) (TCN-116) (antibody) (VH): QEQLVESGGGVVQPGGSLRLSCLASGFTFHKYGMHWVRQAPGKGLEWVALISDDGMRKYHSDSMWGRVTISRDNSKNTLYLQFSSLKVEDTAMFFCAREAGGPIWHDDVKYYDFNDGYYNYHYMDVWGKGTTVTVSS
Sequence of 1443_C16 (PG16) (TCN-116) (antibody) (VL): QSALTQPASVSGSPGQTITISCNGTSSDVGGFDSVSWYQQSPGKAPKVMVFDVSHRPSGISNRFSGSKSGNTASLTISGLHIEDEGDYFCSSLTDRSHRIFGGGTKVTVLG

Row | Substance | IC50 (µg/ml), pseudovirus neutralization [1] [µg/mL] | IC50 (µg/ml), pseudovirus neutralization [2] [µg/mL] | neutralization IC50 [3] [µg/mL] | IC50 (µg/ml), pseudovirus neutralization [4] [µg/mL] | neutralization IC50 [5] [µg/mL] | IC50 (µg/ml), pseudovirus neutralization [6] [µg/mL] | IC50 (µg/ml), pseudovirus neutralization [7] [µg/mL] | IC50 (µg/ml), pseudovirus neutralization [8] [µg/mL] | IC50 [9] [µg/mL] | IC50 (µg/ml), pseudovirus neutralization [10] [µg/mL] | IC50 (µg/ml), pseudovirus neutralization [11] [µg/mL] | IC50 (µg/ml), pseudovirus neutralization [12] [µg/mL] | IC50 [13] [µg/mL] | IC50 (µg/ml), pseudovirus neutralization [14] [µg/mL] | IC50 (µg/ml), pseudovirus neutralization [15] [µg/mL] | IC50 (µg/ml), pseudovirus neutralization [16] [µg/mL] | IC50, pseudovirus neutralization [17] [µg/mL] | IC50 [18] [µg/mL] | IC50, single-round pseudovirus neutralization [19] [µg/mL] | IC50 [20] [µg/mL] | also measured
1 | 2G12 (antibody) | 13.8 | 0.37 | 0.56 | 23 | > 50 | > 50 | > 50 | 0.08 | > 50 | 25.7 | > 50 | 1.67 | > 50 | > 50 | > 50 |  |  |  |  |  | 
2 | 1443_C16 (PG16) (TCN-116) (antibody) | > 50 | 0.001 | 0.004 | > 50 | 0.102 | 0.18 | 0.01 | > 50 | 5.09 | 19.7 | 11.3 | > 50 | 0.09 | 8.83 | 5.91 | 0.01 |  |  |  |  | 
3 | 4E10 (antibody) | 9.87 | 3.3 | 3.38 | 13.3 | 1.55 | 4.58 | 9.44 | 1.46 | 24.2 | 35.2 | 1.02 | 4.28 | 1.95 | 17.9 | 1.82 | 3.69 |  |  |  |  | 
4 | 1495_C14 (PGC14) (antibody) | > 50 | 15 | 28.6 | > 50 | > 50 | > 50 | 29 | > 50 | > 50 | > 50 | > 50 | < 0.0025 | > 50 | > 50 | > 50 | > 50 |  |  |  |  | 
5 | 5343_B08 (PGT-135) (antibody) |  |  |  |  |  |  |  |  |  |  |  |  |  |  |  |  | 0.168 | > 50 | > 50 | 8.03 | IC50 [21]: > 50 µg/mL; IC50 [22]: > 50 µg/mL; IC50 [23]: > 50 µg/mL; Fold IC50 increase relative to wild-type [24]: 0.9 fold; IC50 (µg/mL) neutralization [25]: 0.073 µg/mL; Fold IC50 increase relative to wild-type [26]: 1.1 fold; IC50, pseudovirus neutralization [27]: 0.592 µg/mL; IC50 [28]: > 50 µg/mL; Fold IC50 increase relative to wild-type [29]: 0.5 fold; IC50 [30]: 0.03 µg/mL; IC50 [31]: > 50 µg/mL; IC50 [32]: 0.023 µg/mL; neutralization IC50 [33]: > 50 µg/mL; IC50 [34]: > 50 µg/mL
6 | b12 (antibody) | 13.6 | 0.21 | > 50 | 5.23 | 34.1 | > 50 | > 50 | 0.75 | 5.46 | > 50 | > 50 | 0.02 | 13.9 | > 50 | > 50 | > 50 |  |  |  |  | 
7 | 5147_N06 (PGT-130) (antibody) |  |  |  |  |  |  |  |  |  |  |  |  |  |  |  |  | 9.73 | > 50 | 0.005 | > 50 | IC50 [21]: > 50 µg/mL; IC50 [22]: 0.008 µg/mL; IC50 [23]: 1.21 µg/mL; Fold IC50 increase relative to wild-type [24]: 2.5 fold; IC50 (µg/mL) neutralization [25]: 1.4 µg/mL; Fold IC50 increase relative to wild-type [26]: 0.4 fold; IC50, pseudovirus neutralization [27]: 8.45 µg/mL; IC50 [28]: 0.01 µg/mL; Fold IC50 increase relative to wild-type [29]: 1.7 fold; IC50 [30]: 0.257 µg/mL; IC50 [31]: > 50 µg/mL; IC50 [32]: 0.007 µg/mL; neutralization IC50 [33]: 0.004 µg/mL; IC50 (ug/ml), neutralizing activity [35]: 0.0089 µg/mL; IC50 [34]: 7.28 µg/mL
8 | 5114_A19 (PGT-128) (antibody) |  |  |  |  |  |  |  |  |  |  |  |  |  |  |  |  | 0.355 | > 50 | 0.005 | > 50 | IC50 [21]: > 50 µg/mL; IC50 [22]: 0.081 µg/mL; IC50 [23]: 24.9 µg/mL; Fold IC50 increase relative to wild-type [24]: 2.9 fold; IC50 (µg/mL) neutralization [25]: 0.009 µg/mL; Fold IC50 increase relative to wild-type [26]: 0.5 fold; IC50, pseudovirus neutralization [27]: 0.017 µg/mL; IC50 [28]: 0.009 µg/mL; Fold IC50 increase relative to wild-type [29]: 0.6 fold; IC50 [30]: 0.018 µg/mL; IC50 [31]: 0.007 µg/mL; IC50 [32]: 0.007 µg/mL; neutralization IC50 [33]: 0.005 µg/mL; IC50 [34]: 0.373 µg/mL
9 | 2F5 (antibody) | 15.7 | 1.85 | 3.37 | > 50 | > 50 | 3.9 | 24.6 | 0.55 | > 50 | > 50 | 16.8 | 2.52 | > 50 | 23.1 | 16.3 | 14.6 |  |  |  |  | 

Reference: US20200024330A1
